The data set deals with the molecule itself. Briefly: negative-stain EM + ThT fluorescence.

B1: CPEB3 residues 1-217 (prion-like domain 1 construct) (domain or fragment)
chain: MQDDLLMDKSKTQPQPQQQQRQQQQPQPESSVSEAPSTPLSSETPKPEENSAVPALSPAAAPPAPNGPDKMQMESPLLPGLSFHQPPQQPPPPQEPAAPGASLSPSFGSTWSTGTTNAVEDSFFQGITPVNGTMLFQNFPHHVNPVFGGTFSPQIGLAQTQHHQQPPPPAPAPQPAQPAQPPQAQPPQQRRSPASPSQAPYAQRSAAAAYGHQPIMT
As for B1, the binding result is on record as “binds”.

The values above are taken from article doi:10.1101/2022.12.07.519389 (bioRxiv, 2022).
